This data set concerns the molecule itself. Description: crystal structure; crystals from 10–18% PEG 4000, 50–200 mM sodium acetate buffer pH 4.6, 15 mM nicotinic acid (where present), 15% ethylene glycol; molecular replacement with PDB 1ICR; two subunits in the asymmetric unit.

Positions count from the first letter of the chain named. Names and notes keep the numbering of the source.

B1: T41L/N71S NfsB (enzyme, Escherichia coli)
chain: MDIISVALKRHSTKAFDASKKLTPEQAEQIKTLLQYSPSSLNSQPWHFIVASTEEGKARVAKSAAGNYVFSERKMLDASHVVVFCAKTAMDDVWLKLVVDQEDADGRFATPEAKAANDKGRKFFADMHRKDLHDDAEWMAKQVYLNVGNFLLGVAALGLDAVPIEGFDAAILDAEFGLKEKGYTSLVVVPVGHHSVEDFNATLPKSRLPQNITLTEV
notes: Escherichia coli NfsB nitroreductase, 24 kDa subunit, expressed as the native protein; Expressed 'as the native proteins', so no tag is stated; Homodimer with one FMN per active site; also called double mutant; T41L/N71S mutant; source: E. coli BL21 (λDE3), pET11c, purified (Phenyl Sepharose, Q-Sepharose)
On to B1, for which the binding result was “binds”.

B2: T41Q/N71S/F124T NfsB (enzyme, Escherichia coli)
chain: B1 chain with L41Q, F124T
notes: Escherichia coli NfsB nitroreductase, 24 kDa subunit, expressed as the native protein; Expressed 'as the native proteins', so no tag is stated; Homodimer with one FMN per active site; also called triple mutant; T41Q/N71S/F124T mutant; source: E. coli BL21 (λDE3), pET11c, purified (Phenyl Sepharose, Q-Sepharose)
As to B2, the binding result is reported as “binds”.

B3: T41Q/N71S/F124T/M127V NfsB (enzyme, Escherichia coli)
chain: B1 chain with L41Q, F124T, M127V
notes: Escherichia coli NfsB nitroreductase, 24 kDa subunit; also called quadruple mutant; T41Q/N71S/F124T/M127V mutant; source: initially purified from a UT5600 E. coli lysogen, later also recloned into pET11c; purified (Phenyl Sepharose, Q-Sepharose)
For B3, the binding result is “binds”.

Values taken from PMC10051150, “Structure and Dynamics of Three Escherichia coli NfsB Nitro-Reductase Mutants Selected for Enhanced Activity with the Cancer Prodrug CB1954” (International Journal of Molecular Sciences, 2023).
